# Reference: patent US20150266963A1 (ARGEN X B V, published 2015)
# T1: mouse Flag-TNC-CD70 (mouse, UniProt O55237 45-195)
# T1 construct: extracellular domain; also called mouse CD70; not shown: Flag tag and TNC trimerisation domain
# T1 sequence (looked up): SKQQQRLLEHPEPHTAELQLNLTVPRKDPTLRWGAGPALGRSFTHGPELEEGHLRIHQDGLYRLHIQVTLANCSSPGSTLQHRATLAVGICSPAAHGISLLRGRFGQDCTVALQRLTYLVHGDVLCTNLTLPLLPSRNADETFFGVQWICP
# T2: human-mouse CD70 chimera chim-1 (Flag-TNC-CD70) (Homo sapiens (Human), UniProt P32970 58-193, Soluble homotrimer held by the TNC domain; one CD70 ECD chain is given.)
# T2 construct: also called chimera 1; not shown: N-terminal Flag tag, TNC (tenascin-C) trimerisation domain and any linkers of the Flag-TNC-CD70 construct
# T2 chain: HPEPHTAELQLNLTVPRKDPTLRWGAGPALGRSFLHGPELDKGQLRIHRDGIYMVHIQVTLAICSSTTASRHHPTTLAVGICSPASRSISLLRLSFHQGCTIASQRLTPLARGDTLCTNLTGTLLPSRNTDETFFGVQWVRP
# T3: human-mouse CD70 chimera chim-2.4 (Flag-TNC-CD70)
# T3 construct: also called chimera 2.4
# T3 chain: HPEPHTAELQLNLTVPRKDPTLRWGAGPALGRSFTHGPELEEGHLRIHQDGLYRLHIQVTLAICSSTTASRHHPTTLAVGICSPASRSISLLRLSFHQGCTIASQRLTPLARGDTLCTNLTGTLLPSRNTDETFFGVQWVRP
# T4: human-mouse CD70 chimera chim-4 (Flag-TNC-CD70) (Mus musculus (Mouse), UniProt O55237 54-192)
# T4 construct: also called chimera 4
# T4 chain: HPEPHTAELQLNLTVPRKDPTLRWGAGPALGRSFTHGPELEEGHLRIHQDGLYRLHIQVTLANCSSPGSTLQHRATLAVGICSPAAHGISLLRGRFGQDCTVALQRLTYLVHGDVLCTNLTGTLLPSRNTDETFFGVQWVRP
# T5: human-mouse CD70 chimera chim-2.1 (Flag-TNC-CD70) (Soluble homotrimer held by the TNC domain; one CD70 ECD chain is given.)
# T5 construct: also called chimera 2.1; not shown: N-terminal Flag tag, TNC (tenascin-C) trimerisation domain and any linkers of the Flag-TNC-CD70 construct
# T5 chain: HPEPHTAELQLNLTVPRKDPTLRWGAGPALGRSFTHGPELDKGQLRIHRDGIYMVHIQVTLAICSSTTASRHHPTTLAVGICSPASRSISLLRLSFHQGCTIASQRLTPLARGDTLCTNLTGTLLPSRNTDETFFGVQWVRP
# T6: human-mouse CD70 chimera chim-2.2 (Flag-TNC-CD70)
# T6 construct: also called chimera 2.2; not shown: N-terminal Flag tag, TNC trimerisation domain and any linkers of the Flag-TNC-CD70 construct
# T6 chain: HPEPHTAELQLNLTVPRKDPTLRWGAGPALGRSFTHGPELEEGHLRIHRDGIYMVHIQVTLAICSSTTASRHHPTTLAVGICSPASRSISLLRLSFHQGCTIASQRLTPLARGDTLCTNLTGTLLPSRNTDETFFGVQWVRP
# T7: human-mouse CD70 chimera chim-3 (Flag-TNC-CD70)
# T7 construct: also called chimera 3
# T7 chain: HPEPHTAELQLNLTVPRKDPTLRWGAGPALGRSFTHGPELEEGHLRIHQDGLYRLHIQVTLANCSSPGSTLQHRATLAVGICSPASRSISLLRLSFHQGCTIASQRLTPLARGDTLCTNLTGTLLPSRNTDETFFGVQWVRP
# T8: human-mouse CD70 chimera chim-2 (Flag-TNC-CD70)
# T8 construct: also called chimera 2
# T8 chain: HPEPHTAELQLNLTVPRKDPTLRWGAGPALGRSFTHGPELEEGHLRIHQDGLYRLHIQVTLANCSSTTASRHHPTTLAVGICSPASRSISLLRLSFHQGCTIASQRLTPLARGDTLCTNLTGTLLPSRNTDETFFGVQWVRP
# T9: CD27 (UniProt P26842 21-192, limits assumed)
# T9 sequence (looked up): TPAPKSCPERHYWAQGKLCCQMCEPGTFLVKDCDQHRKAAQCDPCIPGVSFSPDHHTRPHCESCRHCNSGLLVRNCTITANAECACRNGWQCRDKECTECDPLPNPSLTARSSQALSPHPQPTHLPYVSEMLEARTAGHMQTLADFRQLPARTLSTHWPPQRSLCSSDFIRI
# B1: recombinant human CD27 Fc chimera (CD27-Fc) (Fc fusion, UniProt P26842 21-192, looked up)
# chain: TPAPKSCPERHYWAQGKLCCQMCEPGTFLVKDCDQHRKAAQCDPCIPGVSFSPDHHTRPHCESCRHCNSGLLVRNCTITANAECACRNGWQCRDKECTECDPLPNPSLTARSSQALSPHPQPTHLPYVSEMLEARTAGHMQTLADFRQLPARTLSTHWPPQRSLCSSDFIRI
# notes: Bought reagent; also called recombinant CD27-Fc; Fc part of the bought chimera not given
# B2: recombinant human CD70 (Flag-TNC-CD70) (ligand, UniProt P32970 39-193, looked up)
# chain: QRFAQAQQQLPLESLGWDVAELQLNHTGPQQDPRLYWQGGPALGRSFLHGPELDKGQLRIHRDGIYMVHIQVTLAICSSTTASRHHPTTLAVGICSPASRSISLLRLSFHQGCTIASQRLTPLARGDTLCTNLTGTLLPSRNTDETFFGVQWVRP
# notes: extracellular domain; Captured by anti-Flag mAb in ELISA; as 'recombinant human CD70' immobilised on Biacore CM5 chips; TNC is for trimerisation; also called recombinant CD70; human recombinant CD70; not shown: Flag tag and TNC trimerisation domain
# Legend:
# [1] = target: T1, mouse Flag-TNC-CD70; assay: ELISA; mouse Flag-TNC-CD70 captured by anti-Flag mAb; anti-human-Fc-HRP
# Protocol: (§1) A Maxisorb (Nunc) microtiter plate was coated with 3.5 μg/ml mouse M2 anti-Flag mAb (Sigma Aldrich, F3165) and the different chimeras were captured. A dilution series of the CD70 mAbs to be tested was applied starting at a concentration of 10 μg/ml and making 3-fold dilutions. After 2 hours, binding was detected using anti-human-Fc-HRP at a 16000-fold dilution. Staining was done with ABTS and OD at 405 nm was measured. As a positive control, CD27-Fc was applied which is able to bind to both human and mouse CD70 with good affinity as well as to the chimeric human-mouse CD70 variants.
# [2] = target: B2; assay: ELISA; Flag-TNC-CD70 captured by anti-Flag mAb; anti-human-Fc-HRP
# Protocol: as §1
# [3] = target: T2, human-mouse CD70 chimera chim-1 …; assay: ELISA; chimera captured by anti-Flag mAb; anti-human-Fc-HRP
# Protocol: as §1
# [4] = target: T3, human-mouse CD70 chimera chim-2.4 …; assay: as above
# Protocol: as §1
# [5] = target: T4, human-mouse CD70 chimera chim-4 …; assay: as above
# Protocol: as §1
# [6] = target: T5, human-mouse CD70 chimera chim-2.1 …; assay: as above
# Protocol: as §1
# [7] = target: T6, human-mouse CD70 chimera chim-2.2 …; assay: as above
# Protocol: as §1
# [8] = target: T7, human-mouse CD70 chimera chim-3 …; assay: as above
# Protocol: as §1
# [9] = target: T8, human-mouse CD70 chimera chim-2 …; assay: as above
# Protocol: as §1
# [10] = target: T9, CD27; assay: Biacore; recombinant human CD70 on CM5 chip; CD27 injected
# Protocol: (§2) Off-rates of the purified llama-derived anti-CD70 blocking Fabs were determined using the Biacore. Recombinant human CD70 was immobilized on a CM5 Biacore chip. The immobilization was performed in accordance with a method provided by Biacore and by using the NHS/EDC kit (Biacore AB): after activation of the chip, a solution of 50 μg/ml of recombinant CD70 in 10 mM acetate buffer with pH of 5 was prepared and 1 μl of this solution (50ng) was injected resulting in a surface density of approximately 1000 RU.
# (§3) Fabs for the CD70 mAbs ARGX-110, MDX2H5 and SGN70 were prepared by […] digestion (SGN70 and MDX69A7 are described elsewhere herein, MDX2H5, also referred to as MDX1411, is described in WO2008/074004 FIGS. 1A and 1B). Fabs, at a concentration of approximately 100-400 μg/ml, were diluted 6-fold in hepes-buffered saline (0.1M Hepes, 1.5M NaCl, 30 mM EDTA, 0.5% v/v surfactant P20). They were injected (30 μl) and passed through the flow cells at a flow rate of 30 μl/min. After binding of the Fab to CD70, the off-rate was monitored for a period of 10 minutes. After the dissociation, the flow cell surfaces were regenerated by injecting 5 μl of 10 mM NaOH. Sometimes multiple injections of NaOH were needed to regenerate the surfaces depending on the affinity of the Fabs. […] Moreover, the off-rate of CD27 for CD70 was determined as well.
# [11] = target: B1; assay: Biacore off-rate analysis, CD27 passed over coated CD70
# Protocol: as §2, §3
EC50 [1] [µg/mL],EC50 [2] [µg/mL],EC50 [3] [µg/mL],EC50 [4] [µg/mL],EC50 [5] [µg/mL],EC50 [6] [µg/mL],EC50 [7] [µg/mL],EC50 [8] [µg/mL],EC50 [9] [µg/mL],koff [10] [s⁻¹],koff [11] [s⁻¹],Binder
0.041,0.079,0.159,0.076,0.051,0.051,0.056,0.094,0.099,,,B1
,,,,,,,,,8e-05,8e-05,B2
